test: soluble on expression in E. coli; label from the status in PepcDB or PDB records

| Sequence | soluble on expression in E. coli |
| --- | --- |
| GPGSMSDSTTEKIFLLYATFSEIHRELLMEHHKTHPEHKTYMDILNYLREEEGVKQSLLKKNSNWEILQQKKLTAIENVAISVKREIPGGFSNSAIVRNALPHAVVLSGFSTSSQTNENWVRLHMQLLDEQTKLVREYNDKRFLNASVKRMIVLCHEHGCDGVAGRLKREFGVSDKMHCWSMLDAYTTMSQWGLIDQLGDVKNKNKPVIGASAFINTLLACGRQEQAKQYIHKIPQIEQRMEYYLLCSDWEGAGADCRRHGEPDLLTQLKDRVKGDASAVQLIDKGWNSVQESGAVKLAKLFA | not soluble |
| GPGSMSLTTTARTPATVGKLSPSSGIFSIPDNISPVTAEEVPKSRDSLLTDMSLSELSRQSVLQSEPVVLRLCHVGKSYPIAGSDERVVALKDITLAESKHSNAATTKQGASTTNCLQRSNLPPPFAPVRRGEFVMIRGPSGGGKTTLLNIIGSIDSCTEGNIELNGRIIDKDTKESVLADIRLKNIGFVFQTFNLIATMTAAENVELPMTLLGTMSTKAMRLRSRQLLTLVGLRNRINHLPSELSGGEQQRVTIARSLANNPSILLLDEPTGDLDTANTIEVMDLLMRINRRTKTTCIMVTHNPDIECYADRILYVSDGRFAKEVFNALPMCLDLENYTEYLAAKERAITGFAGVGDVEDDSEPRATAAMAECIGTKGCEIEKPNSSPVLMEPLTEGQSACSIVSPAASRSAVVQPLCPPAAATAPSVNGVTQTVLDTTHHGSASVPPASASSALLQREEREVPNGL | soluble |
| GPGSMSTGAELLSKALQLQHTRCETYRLWDAKFHCALGGALSASDFETAVNNSIIAAFRCVSLSFRELQCLCRDSTDDACRFLCVWIDELQELEQRHYNISVQFAQLVVQHCTALPLHSSTSQTDMCQTAANEEAENSGVENGSKEVQGTADVSENEKSTVANGERNNSSEVICASLHDRQLCELQRIIPLQAQSVLNYVTCRDDFFPSSSDDECEGDQTGGDGCTSNGADSEPGDLLVPFHHKSGVVATYSPGEVKKRCATFNAAVMPLWRSKLRLRQQLQEKMDELQEEITSASSVFP | soluble |
| GPGSMSTTAYALVAEEKQYPLQVGKNVVGRSSVPVEGVSFINLESPLAAISRMQAFVDIGANGDAWISDCNSTNGTFLSISPGPGIRLEANRYYQLSPGCRIVFGDVVCTFETLSEAPPTPEHPAHLLTSHSRPTRKTESLGVVDALADSTATTTPARHPSKQLNAHRSNVPYLDESGSLLREPAASRETVATTKKTPRRERREPTAPSPPLKRAKVESAAPSSFLKVKTAATAKATTPARALAARPHVCLTGMDSDERVAVTKRVRELKGRVVDDITKANLLVVATPPVRTPKFIAAVARGIPVVSVDYICNRRAELDDARHHIVGLKTDQHTYTAAELKKVIYRKDASPLLQGVSFNIAALSSKTKSVAAEIISSSGGEVVSTKKGGGTALTDAQLDKLYDSILRGKVPDVL | not soluble |
| GPGSMSTTSSPDEASCDVEKEGKGISPVTRTGKRFAECALMDLPDKYSSAFPYLRGARLFFFDVVSKLNRIGARNKRVVFVTDYTIGVASKRGHVSRCAKVEDISELICDAQTRALGVRMRSRPFAIVPKDFSRWNCFHEMPVDLLLHATSAAQYEALINVLSFVHHTSTHEALLCRSLKQYETWKASLVLAPDGSRVKKAVQYYAIPVTPSERSTDAATLSATRSQETSASLSAVRAPRQVALLSAGDSASRFTSGPDVSATAPKLRHWSSLGASSSFTPSGVGGHRTALGLSPFSLSPSPAPPLVEFSRDIEAVPTSATRRGVNPLLKADRKAPNAS | not soluble |
| GPGSMSTWEQAVEEADKAFAKRDCKAVCEIIEKAESDGTCHVQLMWRRARALHTLGDESLDKSEKERYARDAAVAAERAVEEDPTSAEANLWKAICIGILCDYLTTKERMSNVYVIRDHLLRSLELKSDNPDALHGMGMWSLSLLQISWFERSAASLLFGSLPTVSHEECLKYFLASHELRPSIRNCLALGNLFRYQGNWTEAKTWYQKALDIPAETHAHKQKQDEAVQLLNSC | soluble |
| GPGSMTERLSLSRDRINVLLLEGISQTAVEYFKSSGYTNVTHLPKALDKADLIKAISSAHIIGIRSRTQLTEEIFAAANRLIAVGCFSVGTNQVELKAARKRGIPVFNAPFSNTRSVAELVIGEIIMLMRRIFPRSVSAHAGGWEKTAIGSREVRGKTLGIVGYGNIGSQVGNLAESLGMTVRYYDTSDKLQYGNVKPAASLDELLKTSDVVSLHVPSSKSTSKLITEAKLRKMKKGAFLINNARGSDVDLEALAKVLQEGHLAGAAIDVFPVEPASNGERFSTPLQGLENVILTPHIGGSTEEAQERIGTEVTRKLVEYSDVGSTVGAVNFPQVQLPPRPTGTRFMHVHENRPGILNSLMNVFSHHHINIASQFLQTDGEVGYLVMEADGVGEASDAVLQEIREIPGTIRARLLY | soluble |
| GPGSMTKAASLKKGSGDKRAREASLQEATARKVKVETAAMLPKASHDSQAHPNLFSWLLNTSRGEFFRKYFERKHLVASHGSGEYFASGLPGVVPPVNWSTERMLEHVKTHPSRYGADLDIVKFDPKLKRRVSYRTKGLVDAAELEACMKDGWSVRFLRPNEFIESNSAFIGCIEKEFNCYCGANSYWTPANSQGFAPHYDDVDVFFLQLEGEKLWCLYDPPEDVDVLARHSSEDYAPERFPTPKHTITLKAGDVLYMPRGTVHQGKTTLKTHSLHITFSANQMNSWADFMSRAAQYTVETLAANKLEWRRALPRDMPQVMGEVNNPVFRDTHGLPALSANQQDHRANLQTKVREMVAELTLLLTDEVNMDVCADVYGKDTIQKLQPPSRTYSGAAPASRKLSHASRVRLISRNCMRLLLNVPGEARVYHIGQNSTVCLAGELGELRFEADFAPAIATLLSSYPKTMPVSALPFPGFDNSDDVAENQLLLVETLRDAGLLHVGSSAKGNAPS | soluble |
| GPGSMTQNIIRRIFGNRELPENLSGSEYERYMQENFPKWIDEFEKGGFLEATKLPAIKSERDFLSKLIEHKDEIMVVKYWKHGCIPCLSLAEMYKQVSEQCKKENRRIAWYSVNTKDVSARSLVDYQLVNGTPTVQTFSRMKQVGKEIRAISAEELMRELSLREAALNTES | soluble |
| GPGSMTTSDELPANGELDQPERIPDVVECERLKKAGNDLFAADRVAEALELYREAIKHAPLKPVKKPTQHRQDEVPPCGSEGTAQNSIGESSVVSEKSSAPGTEKSSKVGADDAAQDGDDDGIDYTLTSQVYCNAGLCLSKQGMPEDAITHLSEAIRHNKQYSKAYYRRAECYYVLGKWSNAYGDYEEYEKLGGTLDAGSQDRKRQAKAKVDEEMQKMLGELKNMGNRFLNYFGLSTDNFKFDKDPNTGGYSVRFEQ | not soluble |
| GPGSMTVVTTESGLKYEDLTEGSGAEARAGQTVSVHYTGWLTDGQKFDSSKDRNDPFAFVLGGGMVIKGWDEGVQGMKVGGVRRLTIPPQLGYGARGAGGVIPPNATLVFEVELLDV | soluble |
| GPGSMYNSGGEVRSYAQRVFALYSRENVLSVSRFCLAWYVLWGKQPNPTVTELLFGRCDASGDGNVTKYPKEICEEGYAAPLRGSSSDYCKRPSGVNTVAVGASVPPNATLQRRISEEEFVRFAVAYYDSMGNDASDLSDVPGAANPFHAVPRVAHWAHFIALAGDKGYVTLQDILETENVAWLRPPEYEDGDVNPKGVRGGGRAALLSHAFAIADSNKDGKVVFGDVENYMRPLSS | not soluble |
| GPGSMYVLYCCTMQGYSQLSGSSSDENIVHPLSSDGNTVTISPTYTLRMHFLPQHQVAKGAEKNNQIELSVAPTDALIINFPEGTEGSETEVMEQLIGTGRWQWVVPMRPFDGYDSTRSYRLKARRFPVAAGDDSNELTPPTIVHVPNISSIIEAGMRVSNRSQSGLHRSRGGVVCFVVGADPSVVRVPEGKKLLEQLFSEVGRSTISTATLGLRQLHNANWALFISPCRTNKLFAWKERLPSSSVSSGSLWWLCAAADVLLEINTAAEWVTAHFD | not soluble |
| GPGSPSEENEGRQFIVCYYLADDTVSVFELQVPNSGHVGGKIFARRAVENLQDPTLLKVGNTIRLDGVDYLLKEMDERTKRYLEMGMPNMDESYFRTQEILGIAASYLQQQFSRITDAFRHYASSSTQGLTRENVREMLSDAGVHATDAELTNVMERADGDKDGWVSLADFTEQFMQQLFISNFKPRESQKRWGDTRNGVVVQRG | soluble |
| GPHMASMLEAKFEEASLFKRIIDGFKDCVQLVNFQCKEDGIIAQAVDDSRVLLVSLEIGVEAFQEYRCDHPVTLGMDLTSLSKILRCGNNTDTLTLIADNTPDSIILLFEDTKKDRIAEYSLKLMDIDADFLKIEELQYDSTLSLPSSEFSKIVRDLSQLSDSINIMITKETIKFVADGDIGSGSVIIKPFVDMEHPETSIKLEMDQPVDLTFGAKYLLDIIKGSSLSDRVGIRLSSEAPALFQFDLKSGFLQFFLAPKFNDEGSNSQSNGSGALEAKFEEASLFKRIIDGFKDCVQLVNFQCKEDGIIAQAVDDSRVLLVSLEIGVEAFQEYRCDHPVTLGMDLTSLSKILRCGNNTDTLTLIADNTPDSIILLFEDTKKDRIAEYSLKLMDIDADFLKIEELQYDSTLSLPSSEFSKIVRDLSQLSDSINIMITKETIKFVADGDIGSGSVIIKPFVDMEHPETSIKLEMDQPVDLTFGAKYLLDIIKGSSLSDRVGIRLSSEAPALFQFDLKSGFLQFFLAPKFNDEGSNSQASNSGALEAKFEEASLFKRIIDGFKDCVQLVNFQCKEDGIIAQAVDDSRVLLVSLEIGVEAFQEYRCDHPVTLGMDLTSLSKILRCGNNTDTLTLIADNTPDSIILLFEDTKKDRIAEYSLKLMDIDADFLKIEELQYDSTLSLPSSEFSKIVRDLSQLSDSINIMITKETIKFVADGDIGSGSVIIKPFVDMEHPETSIKLEMDQPVDLTFGAKYLLDIIKGSSLSDRVGIRLSSEAPALFQFDLKSGFLQFFLAPKFNDEE | soluble |
| GPLGSGDVQVTEDAVRRYLTRKPMTTKDLLKKFQTKKTGLSSEQTVNVLAQILKRLNPERKMINDKMHFSLKE | soluble |
| GPLGSHENCQSPSMKRSRCTNYSFRTLTLSTAEYTKVVEFLAREAKVPRYTWVPTQVVSHILPTEGLERFLTAIKAGHDSVLFNANGIYTMGDMIREFEKHNDIFERIGIDSSKLSKYYEAFLSFYRIQEAMKLPK | soluble |
| GPLGSMKLRVENPKKAQKHFVQNLNNVVFTNKELEDIYNLSNKEETKEVLKLFKLKVNQFYRHAFGIVNDYNGLLEYKEIFNMMFLKLSVVFDTQRKEANNVEQIKRNIAILDEIMAKADNDLSYFISQNKNFQELWDKAVKLTKEMKIKLKGQKLDLRDGEVAINKVRELFGSDKNVKELWWFRSLLVKGVYLIKRYYEGDIELATTSDFAKAVFE | soluble |
| GPLGSMKPINIQDQFLNQIRKENTYVTVFLLNGFQLRGQVKGFDNFTVLLESEGKQQLIYKHAISTFAPQKNVQLELE | soluble |
| GPLGSPQFMNPAAEAEFNILLATDSYKVTHYKQYPPNTSKVYSYFECREKKTENSKLRKVKYEETVFYGLQYILNKYLKGKVVTKEKIQEAKDVYKEHFQDDVFNEKGWNYILEKYDGHLPIEIKAVPEGFVIPRGNVLFTVENTDPECYWLTNWIETILVQSWYPITVATNSREQKKILAKYLLETSGNLDGLEYKLHDFGYRGVSSQETAGIGASAHLVNFKGTDTVAGLALIKKYYGTKDPVPGYSVPAAEHSTITAWGKDHEKDAFEHIVTQFSSVPVSVVSDSYDIYNACEKIWGEDLRHLIVSRSTQAPLIIRPDSGNPLDTVLKVLEILGKKFPVTENSKGYKLLPPYLRVIQGDGVDINTLQEIVEGMKQKMWSIENIAFGSGGGLLQKLTRDLLNCSFKCSYVVTNGLGINVFKDPVADPNKRSKKGRLSLHRTPAGNFVTLEEGKGDLEEYGQDLLHTVFKNGKVTKSYSFDEIRKNAQLNIELEAAHH | soluble |
